In assay [1] the target is T1, gastrin-releasing peptide receptor (human, UniProt P30550 1-384). Kind of assay: radioligand binding.
Assay [2] concerns the target T1, gastrin-releasing peptide receptor. Description: radioligand binding. The source holds these as a separate data set.

Where two headings read alike, the source gives them in different places. IR800 = IRDye800CW

T1 sequence (P30550 whole entry): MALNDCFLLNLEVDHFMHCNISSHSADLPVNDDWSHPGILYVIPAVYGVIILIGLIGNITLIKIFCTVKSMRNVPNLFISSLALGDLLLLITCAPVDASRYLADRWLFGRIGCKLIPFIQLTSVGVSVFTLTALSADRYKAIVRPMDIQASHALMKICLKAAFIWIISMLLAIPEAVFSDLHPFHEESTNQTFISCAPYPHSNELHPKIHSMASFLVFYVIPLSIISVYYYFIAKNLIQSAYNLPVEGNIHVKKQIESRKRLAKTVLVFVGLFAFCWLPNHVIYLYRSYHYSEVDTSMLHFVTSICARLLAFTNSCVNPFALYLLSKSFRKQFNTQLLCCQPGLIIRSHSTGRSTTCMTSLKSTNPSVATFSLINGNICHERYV

On to IR800-GSGQWAVGHLM-NH2 [IR800-GSG-t-BBN], for which the half-maximal inhibitory concentration (IC50) in assay [1] stood at 56 nM; in assay [2], 57.4 nM.

As a reminder, the IC50 is the concentration that inhibits the measured activity by half. A lower IC50 goes with higher potency.

The values are drawn from article PMC5885141 (Molecular imaging and biology : MIB : the official …, 2014).
